Key:
human Trop-2-His protein [1] = molecular target: T1, human Trop-2-His protein (human, UniProt P09758 27-274); test: ELISA, coated Trop-2 protein
T1 construct: extracellular domain; Assay paragraphs say only 'Trop-2-His'; also called hTrop-2; Kactus Cat #TRP-HM121; not shown: His tag
T1 sequence (looked up): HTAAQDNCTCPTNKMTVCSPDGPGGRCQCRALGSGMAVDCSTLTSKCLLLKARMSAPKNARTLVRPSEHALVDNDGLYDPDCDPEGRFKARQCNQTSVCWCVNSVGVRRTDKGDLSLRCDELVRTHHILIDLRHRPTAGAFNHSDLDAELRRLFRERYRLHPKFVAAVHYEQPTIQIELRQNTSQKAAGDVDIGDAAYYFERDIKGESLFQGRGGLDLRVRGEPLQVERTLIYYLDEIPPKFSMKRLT
Experimental: Purified antibodies were tested by ELISA to confirm their binding and affinity against human and cynomolgus Trop-2-His protein. Briefly, 96-well Maxisorp plates (Nunc) were coated with 100 μl/well of 0.5 μg/ml human (Kactus Cat #TRP-HM121, or Sino Biological, Cat #10428-HO8H) or cynomolgus Trop-2 protein (Kactus Cat #TRP-CM121, or Sino Biological, Cat #90893-CO8H) diluted in 1×PBS (GIBCO) overnight at 4° C. Plates were washed four times with 300 μl/well washing buffer (1×PBST, diluted from 20×PBST (Thermo Scientific) with distilled water)) and then blocked with 300 μl/well of blocking buffer (1×PBST/3% BSA (BSA, Sigma)) for 2 hours at RT on plate shaker at 100 rpm. Plates were washed and added with 100 μl/well of testing antibodies, which were serial diluted with assay buffer (PBST/1% BSA). The antibodies were incubated at room temperature for 2 hours on plate shaker at 100 rpm. Plates were washed. One hundred microliters (100 μl) of 1:10,000 diluted horseradish peroxidase (HRP) conjugated anti-hIgG antibody (Jackson Immuno Research) was added into each well and incubated at room temperature for 1 hour on plate shaker at 100 rpm. Plates were washed and added with 100 μl/well TMB substrate for color development in dark at room temperature for up to 10 minutes. After addition of 50 μl/well of stop solution (1N H₂SO₄), plates were read at 450 nm on a plate reader (SpectraMax M5). EC₅₀ values were calculated using Graphpad Prism. Sacituzumab govitecan, was used as positive control. Anti-HEL.hIgG1 was used as isotype control.

[2] = molecular target: cynomolgus Trop-2-His protein (cynomolgus); test: BLI (Gator Prime), positive control at 1 µg/ml on HFC probe; second line of values
human Trop-2-His protein [3] = molecular target: T1, human Trop-2-His protein; test: as above
human Trop-2-His protein [4] = molecular target: T1, human Trop-2-His protein; test: BLI (Gator Plus), Ab on HFC probe
[5] = molecular target: cynomolgus Trop-2-His protein (cynomolgus); test: ELISA, coated Trop-2 protein
[6] = molecular target: T2, human Trop-2 expressed on cell surface (human, UniProt P09758 27-323); test: cell-based or functional assay
T2 sequence (looked up): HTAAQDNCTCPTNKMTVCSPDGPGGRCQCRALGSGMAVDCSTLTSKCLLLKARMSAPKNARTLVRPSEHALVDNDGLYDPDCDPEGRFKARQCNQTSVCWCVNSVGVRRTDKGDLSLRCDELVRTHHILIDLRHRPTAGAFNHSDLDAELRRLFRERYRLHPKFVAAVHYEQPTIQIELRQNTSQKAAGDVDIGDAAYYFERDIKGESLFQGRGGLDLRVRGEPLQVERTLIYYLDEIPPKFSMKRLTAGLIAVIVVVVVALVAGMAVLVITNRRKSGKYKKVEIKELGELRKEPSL

[7] = molecular target: T2, human Trop-2 expressed on cell surface; test: flow cytometry, MDA-MB-231-GFP cells
Experimental: (§1) Cells were then resuspended in FACS buffer (1×DPBS/1% FBS) at 10⁶/ml concentration. One hundred microliter (100 μl) of cells were aliquoted into a single well in 96 well plates. The antibodies to be tested were serially diluted at 1:3 fold starting at 15 μg/mL and were then added into each well. The antibodies were mixed with cells and the mixtures were incubated on ice for 1 hour. After washing with FACS buffer, one hundred microliter (100 μl) of 1:400 diluted PE-conjugated anti-human Fc secondary antibody (Jackson Immuno Research) was added into each well and incubated for 30 minutes on ice. After washing with FACS buffer, stained cells were resuspended at diluted 7-ADD (Biolegend, used at 1:100 dilution) and analyzed on Guava 11HT or 5HT (Luminex). Data was analyzed using Flowjo software. EC₅₀ values were calculated using GraphPad Prism. Sacitnzurnab govitecan was used as positive control. Anti-HEL.hIgG1 was used as isotype negative control. Similar assay was performed using MCF-7 cells (known to express human Trop-2).

[8] = molecular target: T2, human Trop-2 expressed on cell surface; test: flow cytometry, MCF-7 cells
Experimental: as §1

[9] = molecular target: cynomolgus Trop-2-His protein (cynomolgus); test: BLI (Gator Prime), positive control at 1 µg/ml on HFC probe
human Trop-2-His protein [10] = molecular target: T1, human Trop-2-His protein; test: as above

B1: Sacituzumab govitecan (antibody, INN chains, looked up, V domains shown)
VH: QVQLQQSGSELKKPGASVKVSCKASGYTFTNYGMNWVKQAPGQGLKWMGWINTYTGEPTYTDDFKGRFAFSLDTSVSTAYLQISSLKADDTAVYFCARGGFGSSYWYFDVWGQGSLVTVSS
VL: DIQLTQSPSSLSASVGDRVSITCKASQDVSIAVAWYQQKPGKAPKLLIYSASYRYTGVPDRFSGSGSGTDFTLTISSLQPEDFAVYYCQQHYITPLTFGAGTKVEIKR
modifications: SN-38 payload (govitecan)
EC50 (human Trop-2-His protein [1]): 0.014 nM | Kd [2]: 0.772 nM | koff [2]: 0.00025 s⁻¹ | kon [2]: 326000 M⁻¹ s⁻¹ | Kd (human Trop-2-His protein [3]): 0.497 nM | koff (human Trop-2-His protein [3]): 0.00014 s⁻¹ | kon (human Trop-2-His protein [3]): 281000 M⁻¹ s⁻¹ | kon (human Trop-2-His protein [4]): 239000 M⁻¹ s⁻¹ | EC50 [5]: 0.017 nM | EC50 of ADCC (NFAT-CD16 reporter), MCF-7; average from 3 plates [6]: 2.72 nM | EC50 of ADCC (NFAT-CD16 reporter), MDA-MB-231; average from 3 plates [6]: 0.55 nM | Internalization %, MCF-7, 0.25 µg/ml, 1 h [6]: 30% | Internalization %, MCF-7, 0.25 µg/ml, 2 h [6]: 43% | Internalization %, MCF-7, 0.25 µg/ml, 4 h [6]: 44% | Internalization %, MCF-7, 0.5 µg/ml, 1 h [6]: -4% | Internalization %, MCF-7, 0.5 µg/ml, 2 h [6]: 41% | Internalization %, MCF-7, 0.5 µg/ml, 4 h [6]: 55% | Internalization %, MDA-MB-231, 0.25 µg/ml, 2 h [6]: 41% | Internalization %, MDA-MB-231, 0.25 µg/ml, 4 h [6]: 46% | Internalization %, MDA-MB-231, 0.5 µg/ml, 2 h [6]: 42% | Internalization %, MDA-MB-231, 0.5 µg/ml, 4 h [6]: 45% | Internalization %, MDA-MB-231, 1 µg/ml, 2 h [6]: 43% | Internalization %, MDA-MB-231, 1 µg/ml, 4 h [6]: 49% | Internalization %, MDA-MB-231, 2 µg/ml, 2 h [6]: 43% | Internalization %, MDA-MB-231, 2 µg/ml, 4 h [6]: 48% | EC50 [7]: 0.09 nM | EC50 [8]: 2.2 nM | Kd [9]: 0.614 nM | koff [9]: 0.00022 s⁻¹ | kon [9]: 405000 M⁻¹ s⁻¹ | Kd (human Trop-2-His protein [10]): 0.755 nM | koff (human Trop-2-His protein [10]): 0.00022 s⁻¹ | kon (human Trop-2-His protein [10]): 285000 M⁻¹ s⁻¹

Source: US20250206841A1 (ADEPT THERAPEUTICS, published 2025)
